Measured values published in paper PMC8191761, “The three-way junction structure of the HIV-1 PBS-segment binds host enzyme important for viral infectivity”.

Biological target: RHA (DHX9/RNA helicase A) (UniProt Q08211 1-1270)
Experiment: EMSA; 0.5 uM RNA, 0-4 uM RHA; preferred over TAR-PolyA; EMSA: binding buffer A, 10 mM Tris-HCl pH 7.5, 140 mM KCl, 10 mM KCl (so in the source); probably NaCl), 1 mM MgCl2, 37 C 10 min, 1.5% agarose; ITC: binding buffer B
Conditions: protein: recombinant; tags: N-terminal His6 and Mocr tags; label: site-specific 2H labels in some NMR samples; three-way junction

RHA (DHX9/RNA helicase A), sequence (Q08211 whole entry): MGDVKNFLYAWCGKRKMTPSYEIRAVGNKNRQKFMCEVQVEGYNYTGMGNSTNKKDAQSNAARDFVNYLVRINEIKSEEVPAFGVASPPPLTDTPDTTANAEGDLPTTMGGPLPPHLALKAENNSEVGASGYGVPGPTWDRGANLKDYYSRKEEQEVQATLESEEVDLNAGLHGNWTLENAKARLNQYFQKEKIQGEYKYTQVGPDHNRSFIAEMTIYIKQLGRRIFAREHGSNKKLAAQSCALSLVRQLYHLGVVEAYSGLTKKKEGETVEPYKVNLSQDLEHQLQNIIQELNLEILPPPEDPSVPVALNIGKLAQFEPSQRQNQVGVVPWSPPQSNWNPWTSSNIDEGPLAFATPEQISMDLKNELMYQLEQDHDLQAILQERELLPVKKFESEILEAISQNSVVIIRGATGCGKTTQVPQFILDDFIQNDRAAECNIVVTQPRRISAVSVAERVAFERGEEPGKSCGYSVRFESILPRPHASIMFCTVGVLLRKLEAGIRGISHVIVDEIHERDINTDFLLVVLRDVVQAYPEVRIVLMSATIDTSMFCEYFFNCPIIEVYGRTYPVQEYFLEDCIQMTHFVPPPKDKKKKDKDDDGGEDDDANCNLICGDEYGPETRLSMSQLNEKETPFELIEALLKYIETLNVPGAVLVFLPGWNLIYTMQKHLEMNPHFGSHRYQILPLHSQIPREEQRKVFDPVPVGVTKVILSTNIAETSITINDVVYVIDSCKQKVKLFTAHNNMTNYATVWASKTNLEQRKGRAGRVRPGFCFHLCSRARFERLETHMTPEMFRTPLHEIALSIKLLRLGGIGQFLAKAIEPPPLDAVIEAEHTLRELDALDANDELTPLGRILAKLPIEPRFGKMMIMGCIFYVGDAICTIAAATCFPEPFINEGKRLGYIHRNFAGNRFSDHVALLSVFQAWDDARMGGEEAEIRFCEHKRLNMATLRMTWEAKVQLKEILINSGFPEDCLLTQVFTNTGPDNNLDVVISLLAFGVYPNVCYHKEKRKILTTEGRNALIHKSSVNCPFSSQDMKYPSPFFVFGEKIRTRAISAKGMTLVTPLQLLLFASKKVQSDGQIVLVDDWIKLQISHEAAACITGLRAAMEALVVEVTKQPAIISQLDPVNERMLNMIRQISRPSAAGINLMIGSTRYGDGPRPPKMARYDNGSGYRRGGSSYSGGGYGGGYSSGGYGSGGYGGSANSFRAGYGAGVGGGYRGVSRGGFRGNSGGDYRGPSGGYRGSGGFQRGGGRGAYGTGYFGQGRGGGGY

B1: PBS-segment (nt 125-223) (structured_RNA)
RNA: GGCUCUGGUAACUAGAGAUCCCUCAGACCCUUUUAGUCAGUGUGGAAAAUCUCUAGCAGUGGCGCCCGAACAGGGACUUGAAAGCGAAAGUAAAGCCAGAGCC
B1: binds.
